According to paper doi:10.1101/2022.08.19.504503:

Target: Cdh23 with entire EC domains (Cdh23 EC 1-27) (UniProt Q99PF4)
Experiment: cross-linking

Cdh23 with entire EC domains (Cdh23 EC 1-27) (from UniProt Q99PF4 24-3354) (domain or fragment)
stoichiometry N: 2
